{"source": "patent US20060159654A1", "about": "(ROCKEFELLER UNIVERSITY, published 2006)", "molecules": {"B1": {"name": "TRANCE-R-Fc recombinant molecule (Fc fusion, murine, UniProt O35305 31-214, looked up)", "chain": "VTPPCTQERHYEHLGRCCSRCEPGKYLSSKCTPTSDSVCLPCGPDEYLDTWNEEDKCLLHKVCDAGKALVAVDPGNHTAPRRCACTAGYHWNSDCECCRRNTECAPGFGAQHPLQLNKDTVCTPCLLGFFSDVFSSTDKCKPWTNCTLLGKLEAHQGTTESDVVCSSSMTLRRPPKEAQAYLPS", "notes": "extracellular domain; Made in a baculovirus system and purified on protein A sepharose; also called TR-Fc; TR.R-Fc; not shown: Fc portion of human IgG1, fused to the C-terminal end of the receptor's extracellular domain"}}, "key": {"[1]": {"target": "murine TRANCE receptor (TRANCE-R) on the cell surface (murine) (UniProt O35305)", "assay": "cell-based or functional assay"}, "[2]": {"target": "T1, murine TRANCE (mTRANCE) on the cell surface (murine, UniProt O35235 1-316)", "T1 construct": "also called RANK-L", "T1 sequence": "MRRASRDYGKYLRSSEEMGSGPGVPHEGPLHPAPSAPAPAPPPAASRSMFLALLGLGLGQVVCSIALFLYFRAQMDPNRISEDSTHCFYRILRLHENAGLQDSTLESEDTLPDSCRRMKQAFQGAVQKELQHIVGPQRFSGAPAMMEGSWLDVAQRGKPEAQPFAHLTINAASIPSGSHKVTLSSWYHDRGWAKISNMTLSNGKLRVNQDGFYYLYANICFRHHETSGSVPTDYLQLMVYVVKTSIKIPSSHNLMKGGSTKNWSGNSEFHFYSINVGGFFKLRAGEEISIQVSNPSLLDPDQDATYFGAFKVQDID", "assay": "flow cytometry on transfected 293T cells and on activated murine T cells, TR-Fc at 5 mg/ml as printed, FITC anti-human Fc", "protocol": "Determination of the specificity of hCD8-TRANCE and TR-Fc.\nFlow cytometry. The expression of TRANCE on activated CD4+ and CD8⁺ T-cells was assessed using the TR-Fc fusion protein at 5 mg/ml followed by FITC-conjugated goat anti-human IgG (Fc specific) F(ab′)₂ fragment (Jackson. Laboratories, West Grove, Pa.). The negative control consisted of normal hIgG1 (Sigma, St Louis, […].). T-cell and thymocyte subsets were sorted using a FACS “VANTAGE”, (Becton Dickinson, Mountain View, Calif.)."}}}
{"molecule": "FLAG-tagged soluble form of TRANCE (TRANCE-Ecto) (from UniProt O35235 72-316) (ligand)", "values": [{"measurement": "JNK activation (fold induction over unstimulated), LNTC", "setting": "[1]", "result": 2, "unit": "fold"}, {"measurement": "JNK activation (fold induction over unstimulated), T cell hybridomas", "setting": "[1]", "result": 2, "unit": "fold"}, {"measurement": "JNK activation (fold induction over unstimulated), thymocytes", "setting": "[1]", "result": 3, "unit": "fold"}]}
{"molecule": "human CD8-TRANCE recombinant molecule (from UniProt P01732 22-182) (ligand)", "values": [{"measurement": "JNK activity in thymocytes of control littermates", "setting": "[1]", "result": 2.5, "unit": "fold"}]}
{"molecule": "B1", "values": [{"measurement": "binding result", "setting": "[2]", "result": "binds"}]}
